# T1: H2-K^b (mouse, UniProt P01887 21-119; P01901 22-369, limits assumed)
# T1 construct: whole, on cells; also called murine MHC class I
# T1 sequence (MHC heavy, looked up): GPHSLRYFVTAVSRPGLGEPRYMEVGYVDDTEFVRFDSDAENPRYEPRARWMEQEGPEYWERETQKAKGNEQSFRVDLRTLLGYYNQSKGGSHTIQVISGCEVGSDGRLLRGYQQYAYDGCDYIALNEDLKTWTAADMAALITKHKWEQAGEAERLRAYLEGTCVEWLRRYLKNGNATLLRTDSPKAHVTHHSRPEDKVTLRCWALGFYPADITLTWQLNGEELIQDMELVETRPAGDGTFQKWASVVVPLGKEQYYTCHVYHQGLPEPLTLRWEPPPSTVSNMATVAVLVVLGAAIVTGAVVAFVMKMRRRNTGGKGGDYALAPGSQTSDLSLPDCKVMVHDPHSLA
# T1 sequence (b2m, looked up): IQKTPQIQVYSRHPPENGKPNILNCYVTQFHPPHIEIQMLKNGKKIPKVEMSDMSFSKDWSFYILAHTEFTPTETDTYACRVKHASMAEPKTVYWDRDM
# Key:
# [1] = target: T1, H2-K^b; assay: H2-K^b upregulation on RMA-S cells, 100 µM peptide, 37° C.
# Description: To obtain the data presented in FIG. 3, survivin peptide epitopes were used in conventional MHC class I peptide binding assays. Mean fluorescence in FIG. 3 represents binding of SVN peptides to H2-K^b. Upregulation of H2-K^b molecules on the surface of murine RMA-S cells which are deficient in the expression of surface MHC class I molecules was used to determine actual survivin peptide binding in vitro. Data presented in FIG. 3 represent the binding of 100 μM peptide at 37° C.
# [2] = target: T2, HLA-A*0201 (human); assay: competitive peptide binding assay, displacement of fluorescently labeled HPV18-27 from HLA-A*0201
# T2 construct: also called human MHC class I; MHC I
# Text: To obtain the data summarized in FIGS. 4A and 4B, survivin peptide epitopes were used in MHC class I peptide competitive displacement assays. […] Positive control peptides (Flu & gp100) represent known immunogenic MHC class I ligands. Data represent mean fluorescence±S.E.M. of triplicate samples.
# [3] = target: T2, HLA-A*0201; assay: survivin/MHC Class I-specific HLA-A*0201 pentamer binding
binder,measurement,setting,value
CFFCFKEL (also called SVN 57-64 wt) [SVN-57-64],binding result,[1],binds
MFFCFKEL [SVN-57-64/M57],binding result,[1],binds
TLGEFLKL [SVN97-104],binding result,[1],binds
DLAQCFFCFKELEGW [wild type SVN53-67],binding result,[2],binds
DLAQMFFCFKELEGW (also called Survivin M57; Survivin-53-67/57M) [SVN53-67/M57],fold stronger binding than wild type SVN53-67,[2],~12 fold
QCFFCFKEL [wild type SVN56-64],binding result,[3],binds
QMFFCFKEL (also called core peptide SVN56-64/M57) [SVN56-64/M57],fold stronger binding than wild type SVN56-64,[3],~73 fold

# From patent US20110268755A1 (HEALTH RESEARCH, published 2011)
